The values that follow come from patent publication US20140323691A1.

Assay [1] deals with BxpB (exosporium basal layer protein) (Bacillus anthracis). Nature of the assay: LC-MS/MS and immunoblot analyses of BxpB-BclA and BxpB-(BclA NTD-eGFP) complexes.
Assay [2] shares this target.
Assay [3] shares this target. Nature of the assay: densitometry of anti-BxpB and anti-eGFP immunoblots. For orientation: A western blot detects proteins with antibodies after separation by electrophoresis.

Substance “BclA (collagen-like glycoprotein of the Bacillus anthracis exosporium nap)” returned an NTDs attached to a single molecule of BxpB (per molecule of BxpB) in assay [1] of under 3. For the same substance, the frequency of multiple attachments in assay [2] is 57%.
In the case of “BclA NTD-enhanced green fluorescence protein (eGFP) fusion protein”, in assay [3], the fusion proteins per molecule of BxpB (band 1) (per molecule of BxpB) was 1, the fusion proteins per molecule of BxpB (band 2) (per molecule of BxpB) was 2 and the fusion proteins per molecule of BxpB (band 3) (per molecule of BxpB) was 3. This substance also displayed a frequency of multiple attachments in assay [2] of 18%.
